B1: Ha1-4.37 (antibody, IgG1, V domains shown)
VH: PGALQESGPGLVRPSQTLSLTCTVSGGSISSGGTYYWIWIRQHPGKGLEWIGYIYYSGSTYYNPSLKSRVTISVDTSKNQFSLKLSSVTAADTAVYYCARDGITMVRGISGGMDVWGQGTTVTVSS
VL: ASVGDRVTITCRASQSISSHLNWYQQKPGKAPKLLIYAASSLQSGVPSRFSGSGSGTDFTLSISSLQPEDFATYFCQQSYSIPRTFGQGTKVEITR
notes: Fully human MAb from human gamma 1 producing XenoMouse (IgG1, kappa), hybridoma ATCC PTA-6702
B2: Ha1-4.117 (antibody, V domains shown)
VH: QVQLQESGPGLVKPSQTLSLTCTVSGGSISSGGYYWIWIRQHPGKGLEWIGYIYYNGNTYYNPSLKSRVTMSVDTSKNQFSLKLSSVTAADTAVYYCARDGITMIRGYYYGMDVWGQGTTVTVSS
VL: QLTQSPSSVSASVGDRVTITCRASRGISSWLAWYQQKPGKAPKLLIYTASSLQSGVPSRFSGSGSGTDFTLTISSLQPEDFATYYCQQAYSFPRTFGQGTKVEIKR
notes: Fully human MAb from human gamma 1 producing XenoMouse (IgG1, kappa), hybridoma ATCC PTA-6699; A fluorescein conjugate was used for IHC
B3: Ha1-1.16 (antibody, IgG1, V domains shown)
VH: QVQLQQSGPGLVKPSQTLSLTCAISGDSVSSNSAAWNWIRQSPSRGLEWLGRTYYRSKWYNGYAVSVKSRMTINPDTSKNQFSLQLNSVTPEDTAVYYCARERLGELYGMDVWGQGTTVTVSS
VL: QLTQSPDSLAVSLGERATINCKSSQNILYRSSKKNHLVWYQQKPGQPPKLLIYWASTRESGVPARFSGSGSGTDFTLTISTLQAEDVAVYYCQQYYSTPPTFGQGTRLEIKR
notes: Fully human MAb from human gamma 1 producing XenoMouse immunized with PSCA-GST (IgG1, kappa), hybridoma ATCC PTA-6698; Ha1-1.16.1 (subclone label) is treated as the same antibody; also called Ha1-1.16.1
B4: Ha1-5.99 (antibody, IgG2, V domains shown)
VH: QVHLQQWGAGLLKPSETLSLTCAVYGGSFSGYYWSWIRQPPGKGLEWIGEINHSGSTSYKPSLKSRVTVSVDTSKNQFSLKLSYVTAADTAVYYCARDRGDYGDFLFDYWGQGTLVTVSS
VL: SPGERATLSCRASQSIGSTYLAWYQQKPGQAPRLLIYGASSRATGIPERFSGSGSGTDFTLTISGLEPEDFAVFYCQQCGSSPPTFGQGTKVEIKR
notes: Fully human MAb from human gamma 2 producing XenoMouse (IgG2, kappa), hybridoma ATCC PTA-6703; Ha1-5.99.1 (subclone label) is treated as the same antibody; also called HA1-5.99.1; Ha1-5.99.1

biological target: T1, PSCA (prostate stem cell antigen), human (human, UniProt O43653 12-83); experiment: FACS titration on SW780 cells, anti-hIgG-PE, Prism sigmoidal dose-response fit
T1 construct: Tested on cells: SW780, LAPC9AI, PC3-PSCA, B300.19-PSCA, prostate cancer xenograft cells and tumour tissue; also called PSCA v.1; PSCA variant 1
Experimental: A panel of seven (7) anti-human PSCA antibodies was tested for their binding affinity to PSCA on SW780 cells, a human bladder cancer cell line expressing high level of PSCA. […] At the end of the incubation, cells were washed and incubated with anti-hIgG-PE detection antibody for 45 min at 4° C. After washing the unbound detection antibodies, the cells were analyzed by FACS; MFI values of each point were obtained using CellQuest Pro software and were used for affinity calculation using Graphpad Prism software: Sigmoidal Dose-Response (variable slope) equation (Table VII and Table VIII).

**Q.** With B1 as the binder, how does the Kd read?
**A.** 0.23 nM

**Q.** Which Kd does the source give for B2 here?
**A.** 0.32 nM

**Q.** With B3 as the binder, how does the Kd read?
**A.** 6.91 nM

**Q.** B4 was tested. Which Kd did it give?
**A.** 0.28 nM

biological target: T2, murine PSCA (mouse, UniProt P57096 21-95); experiment: FACS on 293T cells expressing murine PSCA, anti-hIgG-PE
T2 construct: whole, on cells; also called mouse PSCA; Mouse-PSCA
T2 sequence (looked up): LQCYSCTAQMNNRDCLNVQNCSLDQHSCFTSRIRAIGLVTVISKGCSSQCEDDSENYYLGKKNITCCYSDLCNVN
Experimental: The cells were incubated with the respective antibodies using the following protocol. […] Specific recognition was determined using anti-hIgG-PE secondary detection antibody.

**Q.** Does B2 bind?
**A.** binds

**Q.** Does B3 bind?
**A.** no binding

Source: US20090181034A1 (AGENSYS, published 2009)
